What was measured:
[1] = rabbit, in vivo, iv
mice = conditions: mouse, in vivo, ip
specific IgG antibody = test system: specific IgG antibody; design: species or system rabbits; conditions: rabbit, in vivo

Tetanus Toxoid
Pyrogenicity (highest dose with rise in body temperature ≤ +0.3° C.) [1]: 50 ug/ml/kg body weight
Toxicity (class) (mice): Nontoxic (key: Nontoxic: a minimum of 50 ug of antigen administered intraperitoneally resulted in no mortality)
Immunogenicity (specific IgG antibody): Immunogenic

— US4771127A (priority 1985, dated 1988)
